According to paper PMC10251311:

Tests used:
Assay in all cases: MST
[1] = molecular target: RSV postfusion F (Respiratory syncytial virus) (UniProt P03420+P03420); details: T in primer region unmodified, MST: PBS, 0.05% Tween 20, 25 C, 10-20 nM Cy5-aptamer, AlphaScreen: PBS with mucin 10 mg/L, BSA 1 mg/ml, salmon sperm DNA 1 mg/L, RT, 10 nM biotin-aptamer …
[2] = system: Influenza H1 hemagglutinin S106 DS26r (Influenza virus H1); details: every U is TAdU (5-[(3-indolyl)propionamide-N-allyl]-2'-deoxyuridine); all sugars deoxyribose; T in primer region unmodified; MST: PBS, 0.05% Tween 20, 25 C, 10-20 nM Cy5-aptamer; AlphaScreen: PBS with mucin 10 mg/L, BSA 1 mg/ml, salmon sperm DNA 1 mg/L, RT, 10 nM biotin-aptamer …
[3] = molecular target: hMPV prefusion F v3B (Human metapneumovirus) (UniProt Q6WB98); details: every U is TAdU (5-[(3-indolyl)propionamide-N-allyl]-2'-deoxyuridine); all sugars deoxyribose; T in primer region unmodified; MST: PBS, 0.05% Tween 20, 25 C, 10-20 nM Cy5-aptamer; AlphaScreen: PBS with mucin 10 mg/L, BSA 1 mg/ml, salmon sperm DNA 1 mg/L, RT, 10 nM biotin-aptamer …
hMPV prefusion F v3B (Human metapneumovirus), sequence (Q6WB98 whole entry, the tested form may be a part): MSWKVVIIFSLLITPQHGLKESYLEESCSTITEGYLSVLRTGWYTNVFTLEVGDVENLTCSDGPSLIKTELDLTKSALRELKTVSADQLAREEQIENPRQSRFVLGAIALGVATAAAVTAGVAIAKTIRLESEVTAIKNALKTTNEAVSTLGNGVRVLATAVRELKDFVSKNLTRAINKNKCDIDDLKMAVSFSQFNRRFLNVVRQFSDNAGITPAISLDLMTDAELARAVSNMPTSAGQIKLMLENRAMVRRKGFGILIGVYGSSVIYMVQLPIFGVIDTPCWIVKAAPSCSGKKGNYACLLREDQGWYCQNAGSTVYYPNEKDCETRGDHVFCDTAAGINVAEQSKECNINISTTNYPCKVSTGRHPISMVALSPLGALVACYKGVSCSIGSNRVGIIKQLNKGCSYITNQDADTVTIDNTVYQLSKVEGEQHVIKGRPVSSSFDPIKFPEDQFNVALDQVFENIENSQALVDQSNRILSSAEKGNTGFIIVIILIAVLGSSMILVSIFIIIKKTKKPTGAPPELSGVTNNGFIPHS

| Sequence | Kd ([1]; every U is TAdU (deoxy)) | Kd [2] | Kd ([1]; every U is TAdU (5-[(3-indolyl)propionamide-N-allyl]-2'-deoxyuridine), all sugars deoxyribose) | Kd [3] |
| --- | --- | --- | --- | --- |
| GATCGAGCCAGCTACGTCAGUUAUGGUAUAGGUUGGUGGUGGGGGGGGGUUGUGGUGGGACAUGCCUCAGCGACUA [B1] | 3.99 µM | – | – | – |
| GATCGAGCCAGCTACGTCAUGCUGUCAAUGGGUGGGUGUGGUGGGGUUGAUGUUAUGUGACAUGCCUCAGCGACUA [A2] | – | 14.7 µM | 0.994 µM | 6.95 µM |
| GATCGAGCCAGCTACGTCAUGGUUGGGAGGUGUUGUGGGGAUGGUGGGUGGGAGUAUGACAUGCCUCAGCGACUA [D4] | 2.76 µM | – | – | – |
